Columns and labels:
[1] = biological target: T1, human complement factor H (human, UniProt P08603 19-1231); assay: ELISA; competition inhibition assay: HcpA (2 µg/ml) coated; constant CFH (3 µg/ml in the methods, 2 µg/ml in the results) with PLG 0.001-100 µg/ml, or constant PLG (10 µg/ml) with CFH 0.001-100 µg/ml; conditions: both partners purified
T1 construct: complement factor H, human, 20 short consensus repeats (SCRs); purified protein or as present in normal human serum; purified human factor H of Calbiochem is the only one named; also called CFH; source: bought: Calbiochem (purified human factor H); also in normal human serum

[2] = biological target: T2, recombinant CFHR-1 (human, UniProt Q03591 19-330); assay: far-Western, overlay or dot blot; ligand affinity blot: purified recombinant HcpA separated by SDS-PAGE, on nitrocellulose strips, incubated with recombinant CFHL-1, CFH deletion constructs or recombinant CFHR-1; anti-CFH immune serum, mAb JHD7 or JHD8; conditions: both partners purified
T2 construct: complement factor H-related protein 1, human, recombinant; also called CFH-related protein 1
T2 sequence: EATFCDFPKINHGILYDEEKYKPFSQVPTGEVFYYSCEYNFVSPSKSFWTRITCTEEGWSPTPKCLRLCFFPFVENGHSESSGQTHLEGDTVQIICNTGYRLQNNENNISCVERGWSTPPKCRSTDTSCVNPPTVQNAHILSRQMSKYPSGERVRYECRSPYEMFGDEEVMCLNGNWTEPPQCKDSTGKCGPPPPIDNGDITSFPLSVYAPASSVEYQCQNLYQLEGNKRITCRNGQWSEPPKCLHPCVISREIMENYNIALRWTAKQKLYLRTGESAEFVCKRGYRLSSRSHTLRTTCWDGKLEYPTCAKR

B1: recombinant full-length HcpA (residues 18 to 175) of B. recurrentis A1 (domain or fragment)
chain: LLSKNANLQPKTLETLESNIDDGQKQALAFFQESLQDNKHLDALKQAQSALLKDIKDKPQKTLNFKYNKTKLEQLFRKLGNDKTKQFLKNLHVTIKFINNGSFQSFSSANFNDLDTLEKKQERAINSIKEELYVNYYLYTNELVDLDYFFYRAMNYLS
notes: HcpA, surface lipoprotein of B. recurrentis A1, residues 18-175, lacking the hydrophobic leader peptide; cloned into pQE-30Xa with primers BrBam and BrSal; also called intact HcpA; source: E. coli JM109, purified as recommended by the manufacturer (Qiagen); not shown: His6, N-terminal, kept
- binding result [1]: binds
- binding result [2]: binds

From paper PMC2654920, “Borrelia recurrentis Employs a Novel Multifunctional Surface Protein with Anti-Complement, Anti-Opsonic and Invasive Potential to Escape Innate Immunity” (PLoS ONE, 2009)
